The numbers were not newly measured in patent publication US8747397B2, “Cryotreatment pellet” (CPSI Holdings LLC, priority 2009, dated 2014), which cites them from elsewhere.

The subject of the data set is prostate cancer cell.

B1: TNF-Related Apoptosis-Inducing Ligand (protein, UniProt P50591 1-281, looked up)
Tumor necrosis factor ligand …: MAMMEVQGGPSLGQTCVLIVIFTVLLQSLCVAVTYVYFTNELKQMQDKYSKSGIACFLKEDDSYWDPNDEESMNSPCWQVKWQLRQLVRKMILRTSEETISTVQEKQQNISPLVRERGPQRVAAHITGTRGRSNTLSSPNSKNEKALGRKINSWESSRSGHSFLSNLHLRNGELVIHEKGFYYIYSQTYFRFQEEIKENTKNDKQMVQYIYKYTSYPDPILLMKSARNSCWSKDAEYGLYSIYQGGIFELKENDRIFVSVTNEHLIDMDHEASFFGAFLVG
notes: cytotoxic agent, apoptosis-inducing ligand applied in combination with freezing
Regarding B1, for the setting “sub-lethal dose applied in vitro in combination with freezing”, the cell death entry is on record as “complete prostate cancer cell death occurs”. The critical death temperature (sub-lethal dose in combination with freezing, reduced from −40° C. (freezing alone)) was −10 °C.
